This note sets out measurements from patent US20190064149.

The target of the data set is EphA2 having Myc-labeled C-terminal.

B1: MT6-MMP (protein)
chain: YALSGSVWKKRTLTWRVRSFPQSSQLSQETVRVLMSYALMAWGMESGLTFHEVDSPQGQEPDILIDFARAFHQDSYPFDGLGGTLAHAFFPGEHPISGDTHFDDEETWTFGSKDGEGTDLFAVAVHEFGHALGLGHSSAPNSIMRPFYQGPVGDPDKYRLSQDDRDGLQQLYGKAPQTPYDKPTRKPLAPPPQPPASPTHSPSFPIPDRCEGNFDAIANIRGETFFFKGPWFWRLQPSGQLVSPRPARLHRFWEGLPAQVRVVQAAYARHRDGRILLFSGPQFWVFQDRQLEGGARPLTELGLPPGEEVDAVFSWPQNGKTYLVRGRQYWRYDEAAARPDPGYPRDLSLWEGAPPSPDDVTVSNAGDTYFFKGAHYWRFPKNSIKTEPDAPQPMGPNWLDCPAPSSGPRAPRPPKATPVSETCDCQCELNQA
Regarding B1, the “EphA2 processed fragment, western blotting” value was “a processed fragment of EphA2 (small arrow) was detected only in the MT1-MMP-introduced cells”.

B2: MT4-MMP (protein)
chain: QAPAPTKWNKRNLSWRVRTFPRDSPLGHDTVRALMYYALKVWSDIAPLNFHEVAGSAADIQIDFSKADHNDGYPFDGPGGTVAHAFFPGHHHTAGDTHFDDDEAWTFRSSDAHGMDLFAVAVHEFGHAIGLSHVAAAHSIMRPYYQGPVGDPLRYGLPYEDKVRVWQLYGVRESVSPTAQPEEPPLLPEPPDNRSSAPPRKDVPHRCSTHFDAVAQIRGEAFFFKGKYFWRLTRDRHLVSLQPAQMHRFWRGLPLHLDSVDAVYERTSDHKIVFFKGDRYWVFKDNNVEEGYPRPVSDFSLPPGGIDAAFSWAHNDRTYFFKDQLYWRYDDHTRHMDPGYPAQSPLWRGVPSTLDDAMRWSDGASYFFRGQEYWKVLDGELEVAPGYPQSTARDWLVCGDSQADGSVAAGVDAAEGPRAPPGQHDQSRSEDGYEVCSCTS
Take B2: the “EphA2 processed fragment, western blotting” value was “a processed fragment of EphA2 (small arrow) was detected only in the MT1-MMP-introduced cells”.
